Changes are numbered by the printed parent chain.

The labels stand for the following.
B1: IgG1-F935 (antibody)
heavy: QVQLQESGPGLVKPSETLSLTCAVSGHSISHDHAWSWVRQPPGEGLEWIGFISYSGITNYNPSLQGRVTISRDNSKNTLYLQMNSLRAEDTAVYYCARSLARTTAMDYWGEGTLVTVSSASTKGPSVFPLAPSSKSTSGGTAALGCLVKDYFPEPVTVSWNSGALTSGVHTFPAVLQSSGLYSLSSVVTVPSSSLGTQTYICNVNHKPSNTKVDKKVEPKSCDKTHTCPPCPAPELLGKDSVFLFPPKPKDVLYISRTPEVTCVVVDVSHEDPEVKFNWYVDGVEVHNAKTKPREEQYNSTYRVVSVLTVLHQDWLNGKEYKCKVSNKALPAPIEKTISKAKGQPREPQVYTLPPSRDELTKNQVSLTCLVKGFYPSDIAVEWESNGQPENNYKTTPPVLDSDGSFFLYSKLTVDKSRWQQGNVFSCSVMHEALHYHYTQKSLSLSP
light: not shown
notes: EU numbering; copies: 2 + 2
B2: IgG1-F999 (antibody)
heavy: B1 heavy with K239G, D240P, E260H, Y438V
light: not shown
notes: EU numbering; copies: 2 + 2
B3: IgG1-F944 (antibody)
heavy: B1 heavy with K239G, D240P, Y438V
light: not shown
notes: EU numbering; copies: 2 + 2
B4: IgG1-F1010 (antibody)
heavy: B1 heavy with L237R, K239G, D240P, S241K, V252T, T309A, Q313H
light: not shown
notes: EU numbering; copies: 2 + 2
B5: IgG1-F989 (antibody)
heavy: B1 heavy with L237R, K239G, D240P, S241K, V252T, V310P, Y438V
light: not shown
notes: EU numbering; copies: 2 + 2
B6: IgG1-F1013 (antibody)
heavy: B1 heavy with K239G, D240P, T309Q, V310P, Q313A
light: not shown
notes: EU numbering; copies: 2 + 2
B7: IgG1-F992 (antibody)
heavy: B1 heavy with L237R, K239G, D240P, S241K, V252T, T309Q, Q313A, M430I, Y438V
light: not shown
notes: EU numbering; copies: 2 + 2
B8: IgG1-F954 (antibody)
heavy: B1 heavy with K239G, D240P, V252T, H437K, Y438V
light: not shown
notes: EU numbering; copies: 2 + 2
B9: IgG1-F995 (antibody)
heavy: B1 heavy with L237R, K239G, S241K, V252T
light: not shown
notes: EU numbering; copies: 2 + 2
B10: IgG1-F1008 (antibody)
heavy: B1 heavy with L237R, K239G, D240P, S241K, Y438V
light: not shown
notes: EU numbering; copies: 2 + 2
B11: IgG1-F946 (antibody)
heavy: B1 heavy with K239G, D240P, T309Q, Q313A, Y438V
light: not shown
notes: EU numbering; copies: 2 + 2
B12: IgG1-F988 (antibody)
heavy: B1 heavy with K239G, N288E, Y438V
light: not shown
notes: EU numbering; copies: 2 + 2
B13: IgG1-F980 (antibody)
heavy: B1 heavy with K239G, D240P, V252T, S256V
light: not shown
notes: EU numbering; copies: 2 + 2
B14: IgG1-F994 (antibody)
heavy: B1 heavy with K239G, D240P, V252T, N327G
light: not shown
notes: EU numbering; copies: 2 + 2
B15: IgG1-F1011 (antibody)
heavy: B1 heavy with K239G, D240P, V310P
light: not shown
notes: EU numbering; copies: 2 + 2
B16: IgG1-F942 (antibody)
heavy: B1 heavy with L237K, K239G, D240P, S241K, V252T, T309Q, Q313A, Y438V
light: not shown
notes: EU numbering; copies: 2 + 2
B17: IgG1-F957 (antibody)
heavy: B1 heavy with K239G, D240P, V252T, H437N, Y438V
light: not shown
notes: EU numbering; copies: 2 + 2
B18: IgG1-F966 (antibody)
heavy: B1 heavy with K239G, D240P, V252T, S256A
light: not shown
notes: EU numbering; copies: 2 + 2
B19: IgG1-F972 (antibody)
heavy: B1 heavy with K239G, D240P, V252T, S256I
light: not shown
notes: EU numbering; copies: 2 + 2
B20: IgG1-F940 (antibody)
heavy: B1 heavy with K239G, Y438V
light: not shown
notes: EU numbering; copies: 2 + 2
B21: IgG1-F971 (antibody)
heavy: B1 heavy with K239G, D240P, V252T, S256H
light: not shown
notes: EU numbering; copies: 2 + 2
B22: IgG1-F990 (antibody)
heavy: B1 heavy with L237R, K239G, D240P, S241K, V252T, T309Q, V310P, Q313A, Y438V
light: not shown
notes: EU numbering; copies: 2 + 2
B23: IgG1-F947 (antibody)
heavy: B1 heavy with K239G, D240P, T309Q, V310P, Q313A, Y438V
light: not shown
notes: copies: 2 + 2
B24: IgG1-F1012 (antibody)
heavy: B1 heavy with L237R, K239G, D240P, S241K, V310P
light: not shown
notes: EU numbering; copies: 2 + 2
B25: IgG1-F970 (antibody)
heavy: B1 heavy with K239G, D240P, V252T, S256G
light: not shown
notes: EU numbering; copies: 2 + 2
B26: IgG1-F997 (antibody)
heavy: B1 heavy with K239G, D240P, K250I, Y438V
light: not shown
notes: EU numbering; copies: 2 + 2
B27: IgG1-F939 (antibody)
heavy: B1 heavy with L237R, K239G, D240P, S241K, V252T, Y438V
light: not shown
notes: copies: 2 + 2
B28: IgG1-F993 (antibody)
heavy: B1 heavy with K239G, D240P, V252T, T309Q, Q313A, Y438V
light: not shown
notes: EU numbering; copies: 2 + 2
B29: IgG1-F978 (antibody)
heavy: B1 heavy with K239G, D240P, V252T, S256Q
light: not shown
notes: EU numbering; copies: 2 + 2
B30: IgG1-F991 (antibody)
heavy: B1 heavy with L237R, K239G, D240P, S241K, V252T, N288E, T309Q, Q313A, Y438V
light: not shown
notes: EU numbering; copies: 2 + 2
B31: IgG1-F1009 (antibody)
heavy: B1 heavy with L237R, K239G, D240P, S241K, T309Q, V310P, Q313A, Y438V
light: not shown
notes: copies: 2 + 2
B32: IgG1-F960 (antibody)
heavy: B1 heavy with K239G, D240P, V252T, H437R, Y438V
light: not shown
notes: EU numbering; copies: 2 + 2
B33: IgG1-F943 (antibody)
heavy: B1 heavy with L237R, K239G, D240P, S241K, V252T, T309Q, Q313A, Y438V
light: not shown
notes: EU numbering; copies: 2 + 2
B34: IgG1-F945 (antibody)
heavy: B1 heavy with K239G, D240P, V310P, Y438V
light: not shown
notes: EU numbering; copies: 2 + 2
B35: IgG1-F938 (antibody)
heavy: B1 heavy with L237K, K239G, D240P, S241K, V252T, Y438V
light: not shown
notes: copies: 2 + 2
B36: IgG1-F998 (antibody)
heavy: B1 heavy with K239G, D240P, K250Y, Y438V
light: not shown
notes: EU numbering; copies: 2 + 2
B37: IgG1-F996 (antibody)
heavy: B1 heavy with L237R, K239G, S241K, V252T, Y438V
light: not shown
notes: EU numbering; copies: 2 + 2
B38: IgG1-F937 (antibody)
heavy: B1 heavy with K239G, S241K
light: not shown
notes: EU numbering; copies: 2 + 2
B39: IgG1-F987 (antibody)
heavy: B1 heavy with K239G, T309Q, Q313A, Y438V
light: not shown
notes: EU numbering; copies: 2 + 2

In this experiment the target is T1, soluble human FcRn complexed with β2-microglobulin (human, UniProt P61769 21-119, limits assumed).
T1 construct: also called hFcRn
T1 sequence (chain, as listed by the source limits assumed, chain 1 of 2): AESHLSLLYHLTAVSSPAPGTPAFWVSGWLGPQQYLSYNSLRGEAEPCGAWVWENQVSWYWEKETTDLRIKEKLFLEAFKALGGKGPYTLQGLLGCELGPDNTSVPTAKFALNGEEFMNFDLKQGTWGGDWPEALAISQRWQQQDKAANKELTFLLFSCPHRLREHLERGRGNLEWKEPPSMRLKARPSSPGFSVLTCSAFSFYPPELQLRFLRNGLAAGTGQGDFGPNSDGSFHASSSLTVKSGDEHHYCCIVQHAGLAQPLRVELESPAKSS
T1 sequence (P61769 21-119 limits assumed, chain 2 of 2): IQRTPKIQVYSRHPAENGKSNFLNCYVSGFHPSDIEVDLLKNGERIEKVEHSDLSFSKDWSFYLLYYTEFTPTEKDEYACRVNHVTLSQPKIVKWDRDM
In words: Biacore SPR, pH 7.0.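 Further: test antibodies captured on a Protein L chip with human FcRn flowed over as analyte, KD obtained as the ratio of dissociation to association rate constants.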
On to B1, for which binding was put at a Kd of 320 nM.
The figure for B2 is 210 nM; for B3 it is 170 nM.
B4 returned a Kd of 190 nM.
For B5, the affinity, expressed as Kd, was 14 nM.
On to B6, for which binding was characterised by a dissociation constant (Kd) of 30 nM.
The molecule B7 showed a Kd of 51 nM.
B8 displayed a Kd of 530 nM. Compared with the last molecule, the Kd is about 10-fold higher.
With B9 the figure was 290 nM.
With B10 the figure was 170 nM.
In the case of B11, the Kd is 43 nM.
With B12 the figure was 69 nM; with B13, 180 nM.
Turning to B14, the affinity, expressed as Kd, was 280 nM.
The figure for B15 is 45 nM.
Regarding B16, binding was characterised by a dissociation constant (Kd) of 42 nM.
With B17 the figure was 770 nM.
In the case of B18, the equilibrium dissociation constant (Kd) is 310 nM.
With B19, the Kd came to 260 nM.
B20 gave a Kd of 150 nM.
On to B21, for which the Kd came to 2600 nM.
B22 gave a dissociation constant (Kd) of 9.4 nM.
In the case of B23, the Kd was determined as 11 nM.
B24 displayed a Kd of 47 nM.
As to B25, the affinity, expressed as Kd, was 2500 nM.
B26: the Kd turned out to be 380 nM.
B27 registered a Kd of 150 nM.
Take B28: the dissociation constant (Kd) stood at 38 nM.
With B29 the figure was 1300 nM; with B30, 13 nM; with B31, 12 nM.
B32 gave a Kd of 800 nM.
B33 registered a Kd of 40 nM.
Molecule B34 displayed a Kd of 17 nM.
With B35 the figure was 160 nM.
B36 yielded an equilibrium dissociation constant (Kd) of 850 nM.
With B37 the figure was 130 nM.
B38 yielded a dissociation constant Kd of 310 nM. Against the preceding molecule, the Kd is about 2.4-fold higher.
With B39, the equilibrium dissociation constant (Kd) turned out to be 40 nM.

For the origin of these results see patent US20200199241A1 (Chugai, published 2020).
